Measured values reported in US20120316071A1 (published 2012).
Each block holds one binder with its values, some of them ahead of it.

What was measured:
[1] = molecular target: T1, rHuman ErbB2/Fc Chimera, CF (R&D Systems Cat#1129-ER) (human, UniProt P04626 23-652); assay: MSD multispot ECL, antigen spotted on plate, Fab 22 nM; blank spot 289
T1 construct: Bought from R&D Systems; also called human epidermal growth factor 2 receptor (ErbB2); not shown: Fc of the bought chimera

[2] = molecular target: T2, rHuman CD44/Fc Chimera, CF (R&D Systems Cat#3660-CD) (human, UniProt P16070 21-220); assay: as above
T2 construct: Bought from R&D Systems; not shown: Fc of the bought chimera

[3] = molecular target: T3, rHuman P-Cadherin/Fc Chimera, CF (R&D Systems Cat#861-PC) (human, UniProt P22223 108-654); assay: as above
T3 construct: Bought from R&D Systems; not shown: Fc of the bought chimera

[4] = molecular target: T4, rHuman Erythropoietin R/Fc Chimera, CF (R&D Systems Cat#963-ER) (human, UniProt P19235 25-250); assay: as above
T4 construct: Bought from R&D Systems; also called EPO R/Fc; Epo R/Fc chimera; not shown: Fc of the bought chimera
T4 sequence (looked up): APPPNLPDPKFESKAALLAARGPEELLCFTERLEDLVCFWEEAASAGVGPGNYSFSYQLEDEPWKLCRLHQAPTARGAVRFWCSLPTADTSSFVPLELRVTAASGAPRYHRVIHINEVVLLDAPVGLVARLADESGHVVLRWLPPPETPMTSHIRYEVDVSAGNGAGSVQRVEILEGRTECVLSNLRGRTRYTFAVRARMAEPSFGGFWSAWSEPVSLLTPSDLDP

[5] = molecular target: T5, rHuman Erythropoietin R/Fc Chimera, CF (R&D Systems Cat#963-ER) (human, UniProt P19235 25-250); assay: MSD multispot ECL, antigen spotted on plate; Fab 0.51 uM; blank spot 1096
T5 construct: Bought recombinant protein; also called EPO R/Fc; Epo R; Fc part of the bought chimera not given
T5 sequence (looked up): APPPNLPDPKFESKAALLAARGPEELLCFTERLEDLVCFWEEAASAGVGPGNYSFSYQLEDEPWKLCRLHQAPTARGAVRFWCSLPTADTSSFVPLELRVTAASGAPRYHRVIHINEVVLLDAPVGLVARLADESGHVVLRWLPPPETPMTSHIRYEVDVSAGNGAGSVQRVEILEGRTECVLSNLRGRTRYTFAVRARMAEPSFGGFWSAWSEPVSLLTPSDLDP

[6] = molecular target: T6, Recombinant Human DLL4 (R&D Systems Cat#1506-D4/CF) (human, UniProt Q9NR61 27-524); assay: as above
T6 construct: Bought recombinant protein; also called delta-like protein 4; rHuman DLL4

[7] = molecular target: T7, rHuman ErbB2/Fc Chimera, CF (R&D Systems Cat#1129-ER) (human, UniProt P04626 23-652); assay: as above
T7 construct: Bought recombinant protein; also called human epidermal growth factor 2 receptor; Fc part of the bought chimera not given

[8] = molecular target: T8, rHuman EGF R/Fc Chimera, CF (R&D Systems Cat#344-ER) (human, UniProt P00533 25-645); assay: as above
T8 construct: Bought recombinant protein; also called epidermal growth factor receptor; Fc part of the bought chimera not given

[9] = molecular target: T9, rHuman HGF R/c-MET/Fc Chimera, CF (R&D Systems Cat#358-MT/CF) (human, UniProt P08581 25-932); assay: as above
T9 construct: Bought recombinant protein; also called HGF R/Fc; hepatocyte growth factor receptor; Fc part of the bought chimera not given
T9 sequence (P08581 25-932, change not shown): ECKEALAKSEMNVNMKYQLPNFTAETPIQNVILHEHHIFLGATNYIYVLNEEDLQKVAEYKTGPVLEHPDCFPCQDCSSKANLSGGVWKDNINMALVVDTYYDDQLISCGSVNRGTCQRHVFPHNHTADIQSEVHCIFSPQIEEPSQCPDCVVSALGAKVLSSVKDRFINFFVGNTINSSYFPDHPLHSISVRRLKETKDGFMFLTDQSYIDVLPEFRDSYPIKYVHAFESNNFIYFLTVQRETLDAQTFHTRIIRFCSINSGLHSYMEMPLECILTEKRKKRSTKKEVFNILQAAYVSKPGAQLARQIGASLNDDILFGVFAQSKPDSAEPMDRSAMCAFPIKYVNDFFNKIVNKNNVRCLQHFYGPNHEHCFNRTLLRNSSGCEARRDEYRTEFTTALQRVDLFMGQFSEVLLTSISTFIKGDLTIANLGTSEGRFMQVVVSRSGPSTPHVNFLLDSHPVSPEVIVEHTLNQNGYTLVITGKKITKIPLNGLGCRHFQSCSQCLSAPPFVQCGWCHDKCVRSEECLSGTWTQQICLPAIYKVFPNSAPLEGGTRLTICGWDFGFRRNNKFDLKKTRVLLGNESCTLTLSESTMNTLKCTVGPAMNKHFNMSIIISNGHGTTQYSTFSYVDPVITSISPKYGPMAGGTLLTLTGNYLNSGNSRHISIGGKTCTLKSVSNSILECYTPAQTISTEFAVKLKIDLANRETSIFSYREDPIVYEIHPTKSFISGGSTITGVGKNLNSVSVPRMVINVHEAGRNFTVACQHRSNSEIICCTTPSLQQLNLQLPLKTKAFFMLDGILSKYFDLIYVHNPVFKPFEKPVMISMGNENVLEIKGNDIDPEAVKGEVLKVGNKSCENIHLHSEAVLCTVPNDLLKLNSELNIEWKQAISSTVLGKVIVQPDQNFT

[10] = molecular target: T10, rHuman Notch-1/Fc Chimera, CF (R&D Systems Cat#3647-TK) (human, UniProt P46531 19-526); assay: as above
T10 construct: Bought recombinant protein; Fc part of the bought chimera not given

[11] = molecular target: T11, rHuman CD44/Fc Chimera, CF (R&D Systems Cat#3660-CD) (human, UniProt P16070 21-220); assay: as above
T11 construct: Bought recombinant protein; Fc part of the bought chimera not given

[12] = molecular target: T12, rHuman IGF-1 sR, CF (R&D Systems Cat#391-GR) (human, UniProt P08069 31-932); assay: as above
T12 construct: Bought recombinant soluble receptor; also called insulin-like growth factor-1 soluble receptor

[13] = molecular target: T13, rHuman P-Cadherin/Fc Chimera, CF (R&D Systems Cat#861-PC) (human, UniProt P22223 108-654); assay: as above
T13 construct: Bought recombinant protein; Fc part of the bought chimera not given

[14] = molecular target: T14, Recombinant Human DLL4 (R&D Systems Cat#1506-D4/CF) (human, UniProt Q9NR61 27-524); assay: MSD multispot ECL, antigen spotted, Fab 2383 nM; blank spot 344
T14 construct: Bought recombinant protein; also called rHuman DLL4; delta-like protein 4

[15] = molecular target: T15, rHuman Notch-1/Fc Chimera, CF (R&D Systems Cat#3647-TK) (human, UniProt P46531 19-526); assay: as above
T15 construct: Bought reagent

[16] = molecular target: T16, rHuman CD44/Fc Chimera, CF (R&D Systems Cat#3660-CD) (human, UniProt P16070 21-220); assay: as above
T16 construct: Bought reagent

[17] = molecular target: T17, rHuman IGF-1 sR, (IGF-1 sR), CF (R&D Systems Cat#391-GR) (human, UniProt P08069 31-932); assay: as above
T17 construct: Bought soluble receptor; also called insulin-like growth factor-1 soluble receptor

[18] = molecular target: T18, rHuman Erythropoietin R/Fc Chimera, CF (R&D Systems Cat#963-ER) (human, UniProt P19235 25-250); assay: as above
T18 construct: Bought reagent; also called EPO R/Fc; Epo R
T18 sequence (looked up): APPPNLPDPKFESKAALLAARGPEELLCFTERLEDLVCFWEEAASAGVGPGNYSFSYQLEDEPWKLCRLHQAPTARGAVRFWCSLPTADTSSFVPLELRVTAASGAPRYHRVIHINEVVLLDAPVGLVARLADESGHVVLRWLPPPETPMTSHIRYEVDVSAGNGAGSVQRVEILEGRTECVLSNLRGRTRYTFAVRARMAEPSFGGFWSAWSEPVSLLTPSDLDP

ECL signal [1]: 363
ECL signal [2]: 317
ECL signal [3]: 215
ECL signal [4]: 2240
B1: Fab VH1-46_IGHD3-10*01_IGHJ4*01 & B3_IGKJ1*01 (Fab, V domains shown)
VH: QVQLVQSGAEVKKPGASVKVSCKASGYTFTSYYMHWVRQAPGQGLEWMGIINPSGGSTSYAQKFQGRVTMTRDTSTSTVYMELSSLRSEDTAVYYCAREYYYGSGSYYNDYFDYWGQGTLVTVSS
VL: not shown
notes: Tested as a Fab made in E. coli; VH was cloned into Plasmid A (CH1 constant region, His6 and Flag tags); The kappa VL was cloned into Plasmid C (kappa CL)

ECL signal [5]: 2620
ECL signal [6]: 5180
ECL signal [7]: 1530
ECL signal [8]: 2360
ECL signal [9]: 1990
ECL signal [10]: 2770
ECL signal [11]: 2010
ECL signal [12]: 2240
ECL signal [13]: 2390
B2: Fab VH4-34_IGHD7-27*01_IGHJ4*01 & L5_IGKJ1*01 (Fab, V domains shown)
VH: QVQLQQWGAGLLKPSETLSLTCAVYGGSFSGYYWSWIRQPPGKGLEWIGEINHSGSTNYNPSLKSRVTISVDTSKNQFSLKLSSVTAADTAVYYCARANWGDYFDYWGQGTLVTVSS
VL: DIQMTQSPSSVSASVGDRVTITCRASQGISSWLAWYQQKPGKAPKLLIYAASSLQSGVPSRFSGSGSGTDFTLTISSLQPEDFATYYCQQANSFPPWTFGQGTKVEIKR
notes: Germline library Fab expressed in E. coli; VH was cloned into Plasmid A, which adds CH1 with His6 and Flag tags

ECL signal [14]: 11800 ECL signal
ECL signal [15]: 690 ECL signal
ECL signal [16]: 559 ECL signal
ECL signal [17]: 527 ECL signal
ECL signal [18]: 658 ECL signal
B3: Fab VH1-46_IGHD6-6*01_IGHJ1*01 & L6_IGKJ1*01 (Fab, V domains shown)
VH: QVQLVQSGAEVKKPGASVKVSCKASGYTFTSYYMHWVRQAPGQGLEWMGIINPSGGSTSYAQKFQGRVTMTRDTSTSTVYMELSSLRSEDTAVYYCAREEYSSSSAEYFQHWGQGTLVTVSS
VL: not shown
notes: Only variable domains are tied to the molecule; Tested as a Fab made in E. coli: heavy chain from Plasmid A (CH1 constant region, His6 and Flag tags), kappa light chain from Plasmid C (kappa CL); also called parent Hit Fab against DLL4; VH1-46_IGHD6-6*01_IGHJ1*01 & L6_IGKJ1*01 (parental)
